This series concerns the molecule itself. Description: cryo-EM structure; ABCB6 WT purified in DDM/CHS, about 3.6 mg/mL on grids; apo, inward-facing; final refinement with C2 symmetry applied.

This note sets out measurements from PMC11574312, “The role of ATP-binding Cassette subfamily B member 6 in the inner ear” (Nature Communications, 2024).

B1: human ATP-binding cassette sub-family B member 6 (ABCB6) WT-Flag (natural protein)
chain: MVTVGNYCEAEGPVGPAWMQDGLSPCFFFTLVPSTRMALGTLALVLALPCRRRERPAGADSLSWGAGPRISPYVLQLLLATLQAALPLAGLAGRVGTARGAPLPSYLLLASVLESLAGACGLWLLVVERSQARQRLAMGIWIKFRHSPGLLLLWTVAFAAENLALVSWNSPQWWWARADLGQQVQFSLWVLRYVVSGGLFVLGLWAPGLRPQSYTLQVHEEDQDVERSQVRSAAQQSTWRDFGRKLRLLSGYLWPRGSPALQLVVLICLGLMGLERALNVLVPIFYRNIVNLLTEKAPWNSLAWTVTSYVFLKFLQGGGTGSTGFVSNLRTFLWIRVQQFTSRRVELLIFSHLHELSLRWHLGRRTGEVLRIADRGTSSVTGLLSYLVFNVIPTLADIIIGIIYFSMFFNAWFGLIVFLCMSLYLTLTIVVTEWRTKFRRAMNTQENATRARAVDSLLNFETVKYYNAESYEVERYREAIIKYQGLEWKSSASLVLLNQTQNLVIGLGLLAGSLLCAYFVTEQKLQVGDYVLFGTYIIQLYMPLNWFGTYYRMIQTNFIDMENMFDLLKEETEVKDLPGAGPLRFQKGRIEFENVHFSYADGRETLQDVSFTVMPGQTLALVGPSGAGKSTILRLLFRFYDISSGCIRIDGQDISQVTQASLRSHIGVVPQDTVLFNDTIADNIRYGRVTAGNDEVEAAAQAAGIHDAIMAFPEGYRTQVGERGLKLSGGEKQRVAIARTILKAPGIILLDEATSALDTSNERAIQASLAKVCANRTTIVVAHRLSTVVNADQILVIKDGCIVERGRHEALLSRGGVYADMWQLQQGQEETSEDTKPQTMER
notes: ABCB6, human, UniProt Q9NP58; the preparation holds the N-terminal TMD0, but the final model has no density for it; The protein was eluted from Flag resin with 3X Flag peptide and no tag cleavage is described
Turning to B1, the binding result is “binds”.
